Consider 6 molecules from patent US20220251148A1.

This experiment concerns the target purified MHC (MHC II molecules purified by affinity chromatography). Description: competition with a radiolabelled known MHC binding peptide for purified MHC.

B1: P3d (SEQ ID NO: 47), modified alpha gliadin 15-mer peptide (peptide)
peptide: PYSQPESPYMQPQPF
B1: the IC50 came out at 1.99 µM.

B2: P2g (SEQ ID NO: 43), modified alpha gliadin 15-mer peptide (peptide)
peptide: KLPYPQGRLPGPQPQ
Turning to B2, the half-inhibitory concentration (IC50) turned out to be 3.75 µM.

B3: P3f (SEQ ID NO: 48), modified alpha gliadin 15-mer peptide (peptide)
peptide: PYPHPWLRGPQPQPF
In the case of B3, the IC50 is 0.879 µM.

B4: P1f (SEQ ID NO: 37), modified alpha gliadin 15-mer peptide (peptide)
peptide: LQLQPFDQPRLPWPQ
As to B4, the IC50 was found to be 5.44 µM.

B5: P3c (SEQ ID NO: 46), modified alpha gliadin 15-mer peptide (peptide)
peptide: PYPHPRLPYTQPQPF
On to B5, for which the IC50 was 2.99 µM. Compared with the last molecule, the IC50 is about 1.8-fold lower.

B6: P1g (SEQ ID NO: 38), modified alpha gliadin 15-mer peptide (peptide)
peptide: LQLQPFWQPKLPGPQ
As to B6, the IC50 was determined as 11.2 µM.

The term IC50 denotes the concentration that gives 50% inhibition. A high value points to weaker potency.
